Data published in paper doi:10.1101/2025.03.28.645892.
Where two headings read alike, the source gives them in different places.

Experiments:
[1] = molecular target: Arabidopsis thaliana CDC48A (Arabidopsis thaliana) (UniProt P54609); experiment: cross-linking + SEC-MALS
[2] = molecular target: Arabidopsis thaliana CDC48A (Arabidopsis thaliana) (UniProt P54609); experiment: ITC
[3] = molecular target: Arabidopsis thaliana CDC48A (Arabidopsis thaliana) (UniProt P54609); experiment: ITC; remark: listed apart in the source
[4] = molecular target: Arabidopsis thaliana NPL4 (Arabidopsis thaliana) (UniProt O82264); experiment: MST
[5] = molecular target: Arabidopsis thaliana NPL4 (Arabidopsis thaliana) (UniProt O82264); experiment: MST; remark: listed apart in the source

Sequence of Arabidopsis thaliana CDC48A (Arabidopsis thaliana) (P54609 whole entry): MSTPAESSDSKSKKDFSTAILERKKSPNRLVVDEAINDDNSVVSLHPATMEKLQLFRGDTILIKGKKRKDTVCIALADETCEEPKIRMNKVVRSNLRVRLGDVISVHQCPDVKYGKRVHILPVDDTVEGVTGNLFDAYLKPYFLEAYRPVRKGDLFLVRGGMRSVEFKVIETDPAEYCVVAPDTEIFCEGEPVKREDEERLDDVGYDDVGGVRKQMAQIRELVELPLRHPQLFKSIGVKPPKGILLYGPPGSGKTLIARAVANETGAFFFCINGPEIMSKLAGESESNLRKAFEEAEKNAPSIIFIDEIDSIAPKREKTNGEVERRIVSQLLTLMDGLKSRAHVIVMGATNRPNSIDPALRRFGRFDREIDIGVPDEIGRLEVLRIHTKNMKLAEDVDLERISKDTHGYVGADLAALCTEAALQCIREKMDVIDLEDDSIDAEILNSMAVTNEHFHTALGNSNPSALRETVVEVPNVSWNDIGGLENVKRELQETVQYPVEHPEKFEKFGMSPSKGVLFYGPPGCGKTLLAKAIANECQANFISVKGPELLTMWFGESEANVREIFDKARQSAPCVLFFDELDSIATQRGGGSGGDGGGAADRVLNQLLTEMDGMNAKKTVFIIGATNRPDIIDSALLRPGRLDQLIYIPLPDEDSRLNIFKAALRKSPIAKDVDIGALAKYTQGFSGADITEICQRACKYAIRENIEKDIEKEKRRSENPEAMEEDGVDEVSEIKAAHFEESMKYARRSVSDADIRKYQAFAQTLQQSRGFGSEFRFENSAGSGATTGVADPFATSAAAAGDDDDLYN
Sequence of Arabidopsis thaliana NPL4 (Arabidopsis thaliana) (O82264 whole entry): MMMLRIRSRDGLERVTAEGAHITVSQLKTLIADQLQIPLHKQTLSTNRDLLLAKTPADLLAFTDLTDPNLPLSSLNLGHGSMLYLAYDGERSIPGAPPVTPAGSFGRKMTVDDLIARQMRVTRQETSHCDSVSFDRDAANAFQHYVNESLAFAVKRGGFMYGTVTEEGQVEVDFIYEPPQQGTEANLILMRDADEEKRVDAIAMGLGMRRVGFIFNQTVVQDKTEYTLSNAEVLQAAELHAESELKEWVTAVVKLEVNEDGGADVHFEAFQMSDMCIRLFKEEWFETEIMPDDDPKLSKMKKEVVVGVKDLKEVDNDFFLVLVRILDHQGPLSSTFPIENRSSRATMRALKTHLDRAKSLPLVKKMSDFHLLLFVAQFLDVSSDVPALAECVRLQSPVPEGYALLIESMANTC

Substance	stoichiometry N (copy per six AtCDC48A) [1]	Kd [2] [µM]	stoichiometry N (cofactor per AtCDC48A hexamer) [2]	Kd [3] [µM]	stoichiometry N (AtNPL4 per AtCDC48A hexamer) [2]	Kd [4] [µM]	Kd [5] [µM]
Arabidopsis thaliana UFD1B (from UniProt Q9SJV0 1-340) (natural protein)	1	4.4	1				
Arabidopsis thaliana NPL4 (from UniProt O82264 1-413) (natural protein)	1	2.6		7.1	1		
Arabidopsis thaliana UFD1A (natural protein)						> 200	> 200
